Measured values from publication PMC6992001.
Values joined by “and” are separate entries in the source; they are usually repeats but may differ in a detail not shown here. Identical values can stand only once.

Molecular target: Pomacea canaliculata hemocyanin (PcH), native (Pomacea canaliculata)
Test: negative-stain transmission electron microscopy; native PcH 0.12 g/L in 20 mM Tris-HCl pH 7.4, 20 mM CaCl2, 20 mM MgCl2; 2% uranyl acetate, room temperature; self-association of subunits into decamers stacked to multi-decamers

stoichiometry N: 20 subunits and 30 subunits and 40 subunits
Substance: Pomacea canaliculata hemocyanin (PcH), native (complex)
